Laboratory results published in the supplement of paper PMC9170038.

Tested on: MS2 coat protein
Experiment: apparent KD of MS2 coat protein; designed switch direction (-1 OFF switch, 1 ON switch): -1; higher = weaker reporter binding
Outline: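 Transcription of designed RNA switches on Illumina chips was done by stalled E. coli RNA polymerase. SNAP-549-labelled MS2 coat protein was then titrated in doubling steps from 0.7 or 1.5 nM to 3 µM, with steps of 0.8–1.5 h at the lowest and 10–20 min at the highest concentration. The per-design median over clusters of curve-fitted normalised fluorescence is reported as apparent KD.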

[1] = input ligand: microRNA oligo, concentration not stated
[2] = Eterna round: R95, input ligand: microRNA oligo, concentration not stated
[3] = Eterna round: R95, input ligand: FMN 200 uM
[4] = Eterna round: R95, input ligand: none

## CGAUAAAGCUGAGGAUAUGAGAAUAGAAAGAAAUCAGAAGGCAGACAUGAGGAUCACCCAUGUGAGUUCUCGAGAUUAGAUAUU [Prohibition 47 - Jieux - Exclusion NG 1] (Eterna round: R96, puzzle: Exclusion NG 1)
[1]
  apparent KD of MS2 coat protein: 22.2 nM

## UGCAUGGUAGGAUAUACGGAACAUUAGGGUUUGUUAUGUAGACAUGAGGAUCACCCAUGUAGAAGGGCCGUGCU [JL-ex2-2.14 mat747 mod] (puzzle: Exclusion 2)
[2]
  apparent KD of MS2 coat protein: 33.8 nM

## CCCGAGCAUGUAGGAUAUGGCUCGGUGUCUGGGCCAGAAGGACAUGAGGAUCACCCAUGUCUGCGGGUGUGGAUAUGAUUUGGG [-32, -31 kcal A 20%] (Eterna round: R96, puzzle: Exclusion NG 1)
Input ligand: FMN 200 uM
  apparent KD of MS2 coat protein: 85.2 nM
[1]
  apparent KD of MS2 coat protein: 14.5 nM
Input ligand: none
  apparent KD of MS2 coat protein: 32.1 nM

## CGAAGUACGUAAGGAUAUACCGUGAGGACAACGGUAGAAGGUACAACAACAUGAGGAUCACCCAUGUGGACCUCUCGGCGUUGU [Eternabot solution 19] (Eterna round: R96, puzzle: Exclusion NG 1)
[1]
  apparent KD of MS2 coat protein: 309 nM

## AGCUUUUUGUUCGUCUUAUACAUGAGGAUCACCCAUGUAUUGGACCGCAUCGAUAGAUGUAGACCGAGAAGCAUGGG [Omdei Mir OFFv1 C6] (Eterna round: R97, puzzle: Sensor, turn-off variant 1)
Input ligand: FMN 200 uM
  apparent KD of MS2 coat protein: 63 nM
Input ligand: none
  apparent KD of MS2 coat protein: 55.3 nM

## GCAAGCGACUAGGCUCGUCUUAUAUUGAAAAGAUUGAAAACAUGAGGAUCACCCAUGUAUGUGGGAAAGUUGAAGUG [JR_SV3TOV2_Sub010] (puzzle: Sensor v3, turn-off variant 2)
[3]
  apparent KD of MS2 coat protein: 393 nM
[2]
  apparent KD of MS2 coat protein: 526 nM
[4]
  apparent KD of MS2 coat protein: 332 nM

## CAAAUCUGAGGAUAUCGAUAUUUGUACAUGAGGAUCACCCAUGUCCUAUUUAUAAAAUCCCGAGAAGGCAGUGUAU [JR_E5_Sub095] (puzzle: Exclusion 5)
[2]
  apparent KD of MS2 coat protein: 16.2 nM

## GGGAGGAGAGUGAGGAUAUUCGAGGGAGGGAGGGUGAAGAAGGCACAUGAGGAUCACCCAUGUGGUGGGAGGUU [RHig 1] (Eterna round: R97, puzzle: Brourd's mod of Exclusion 4)
Input ligand: FMN 200 uM
  apparent KD of MS2 coat protein: 23.9 nM
Input ligand: none
  apparent KD of MS2 coat protein: 38.3 nM

## AAGAAUCGCAAUACGAAUAAGCAAUACGAACAAUAGCAAACAUGAGGAUCACCCAUGUCAAGGGUGACAACGCUCUA [JR_Sensorv2_tov2_Sub107] (Eterna round: R96, puzzle: Sensor v2, turn-off variant 2)
Input ligand: FMN 200 uM
  apparent KD of MS2 coat protein: 173 nM
[1]
  apparent KD of MS2 coat protein: 61.2 nM
Input ligand: none
  apparent KD of MS2 coat protein: 862 nM

## CUGCAACAUGAGGAUCACCCAUGUCAGGAUAUUCCAAAAUCGUCGAAAGACGAUAACAGAAGAAGGGACAGUAG [Fiskxlusion 7 - Jieux - Exclusion 1] (Eterna round: R97, puzzle: Exclusion 1)
Input ligand: FMN 200 uM
  apparent KD of MS2 coat protein: 44 nM
Input ligand: none
  apparent KD of MS2 coat protein: 35.6 nM

## UUCACGUCAGGAUAUCCAUAUUUCUGAUAUAACGGUACUUUGGAGAAGGGACAUGAGGAUCACCCAUGUCCUCU [LRO-Excl4-19-Nando 22 Mod] (Eterna round: R97, puzzle: Exclusion 4)
Input ligand: FMN 200 uM
  apparent KD of MS2 coat protein: 15.5 nM
Input ligand: none
  apparent KD of MS2 coat protein: 16.9 nM

## AGCGUGGAGACAGGAUAUGAGAAUAGAUAGAACUCAGAAGGGUCACAUGAGGAUCACCCAUGUAAAGUCUUGAGGCUGAGUGGU [Prohibition 6 - Jieux - Exclusion NG 1] (Eterna round: R96, puzzle: Exclusion NG 1)
Input ligand: FMN 200 uM
  apparent KD of MS2 coat protein: 153 nM
[1]
  apparent KD of MS2 coat protein: 36.4 nM
Input ligand: none
  apparent KD of MS2 coat protein: 45.2 nM

## UUGAACUUAGGAUAUUGGUUCAGCUACAUGAGGAUCACCCAUGUGGUACCUAGCUGAGGUCAAGAAGGGAGUGUUG [EX5 B.12] (Eterna round: R97, puzzle: Exclusion 5)
Input ligand: FMN 200 uM
  apparent KD of MS2 coat protein: 25.6 nM
Input ligand: none
  apparent KD of MS2 coat protein: 20.6 nM

## GAAAAGGUAGGAUAUACGAUAAUAAAGGGUAGAUAAUAAACACAUGAGGAUCACCCAUGUAGAAGGACCAAAAG [salish99_ex2_r3_103] (puzzle: Exclusion 2)
[3]
  apparent KD of MS2 coat protein: 127 nM
[2]
  apparent KD of MS2 coat protein: 35 nM
[4]
  apparent KD of MS2 coat protein: 35.2 nM

## UAUAUAUAGUAAGGAUAUGUAUUUAUUUCAUAAACAGAAGGUACUGACAUGAGGAUCACCCAUGUUUUAGUGUGGGCAUGUAGA [JMF's solution 21] (Eterna round: R96, puzzle: Exclusion NG 1)
[1]
  apparent KD of MS2 coat protein: 62.1 nM

## GCACAGGCAGGAUAUACAUGAGGAUCACCCAUGUGACCCUUGAUGUACUCGCGUACACGUAGAAGGGCCUGUGC [Omei Ex3 Model Bachelor's Dilema v41] (Eterna round: R97, puzzle: Exclusion 3)
Input ligand: FMN 200 uM
  apparent KD of MS2 coat protein: 633 nM
Input ligand: none
  apparent KD of MS2 coat protein: 407 nM

## GUUCUGACAGGAUAUACAUGAGGAUCACCCAUGUGCCCUUAGAGAUGCAAAGCAUCUCGUAGAAGGGUCUGAAC [Omei Ex3 Model Bachelor's Dilema v28] (Eterna round: R97, puzzle: Exclusion 3)
Input ligand: FMN 200 uM
  apparent KD of MS2 coat protein: 38.5 nM
Input ligand: none
  apparent KD of MS2 coat protein: 31.6 nM

## CUGUACAUAGGAUAUAGUUGUUUUUACAUGAGGAUCACCCAUGUUACUCCUCUCUCUCUUCUAGAAGGAUGUUUUU [JR_E5_Sub007] (puzzle: Exclusion 5)
[2]
  apparent KD of MS2 coat protein: 78.1 nM

## GCACGGUAAGUGAGGAUAUACCUCUGGAUACAGAGGUAGAAGGCACAUGAGGAUCACCCAUGUUCCAGCCGUGC [Fiskers BMX 4 - 86] (puzzle: Brourd's mod of Exclusion 4)
[2]
  apparent KD of MS2 coat protein: 14.7 nM

## GGAAGACAUGAGGAUCACCCAUGUAAGGAUAUCGAAGGUAAGAGAGGAAAGAAGGGAACGAGAAGGUACAGGUG [JR_Exclu1_Sub095] (puzzle: Exclusion 1)
[3]
  apparent KD of MS2 coat protein: 102 nM
[2]
  apparent KD of MS2 coat protein: 88.9 nM
[4]
  apparent KD of MS2 coat protein: 123 nM

## UGUGCGUAUGUGAGGAUAUGCUGGUCCUUGGAUCGGCAGAAGGCACAUGAGGAUCACCCAUGUGGUGUCGUUCU [salish99_Bmod_ex4_096] (puzzle: Brourd's mod of Exclusion 4)
[2]
  apparent KD of MS2 coat protein: 188 nM

## AUCAUGGACGCAGGAUAUACAUGAGGAUCACCCAUGUAGUAUGAUCAGUGAUGGUCGUCGAUAGUGUAGAAGGGCGGCUAGUAG [random] (Eterna round: R96, puzzle: Exclusion NG 2)
Input ligand: FMN 200 uM
  apparent KD of MS2 coat protein: 34.4 nM
[1]
  apparent KD of MS2 coat protein: 24.2 nM
Input ligand: none
  apparent KD of MS2 coat protein: 32.8 nM

## UCAACGCAAGGAUAUACUUGCGGUGAUGUUCGAAUUCUUCUACUUGAGGAUCACCCAAGUAGAAGGUGCGGUGA [jl-ex2.4.64 ViennaUCT mod] (Eterna round: R97, puzzle: Exclusion 2)
Input ligand: FMN 200 uM
  apparent KD of MS2 coat protein: 14 nM
Input ligand: none
  apparent KD of MS2 coat protein: 13.1 nM

## CCCAGUUAUCUAGGAUAUUGUACAUGAGGAUCACCCAUGUAAUAAAUGAGGAUUUCGGGUGUCUACAAGAAGGAGAGGAUAGGC [Ostracism 16 - Jieux - Exclusion NG 2] (Eterna round: R96, puzzle: Exclusion NG 2)
[1]
  apparent KD of MS2 coat protein: 20.4 nM
